T1: MARCO (Mus musculus, UniProt Q60754)
T1 construct: secretion signal peptide (N); host or cells: Expi293 cells
T1 sequence (Q60754 with tags, fused parts or gaps): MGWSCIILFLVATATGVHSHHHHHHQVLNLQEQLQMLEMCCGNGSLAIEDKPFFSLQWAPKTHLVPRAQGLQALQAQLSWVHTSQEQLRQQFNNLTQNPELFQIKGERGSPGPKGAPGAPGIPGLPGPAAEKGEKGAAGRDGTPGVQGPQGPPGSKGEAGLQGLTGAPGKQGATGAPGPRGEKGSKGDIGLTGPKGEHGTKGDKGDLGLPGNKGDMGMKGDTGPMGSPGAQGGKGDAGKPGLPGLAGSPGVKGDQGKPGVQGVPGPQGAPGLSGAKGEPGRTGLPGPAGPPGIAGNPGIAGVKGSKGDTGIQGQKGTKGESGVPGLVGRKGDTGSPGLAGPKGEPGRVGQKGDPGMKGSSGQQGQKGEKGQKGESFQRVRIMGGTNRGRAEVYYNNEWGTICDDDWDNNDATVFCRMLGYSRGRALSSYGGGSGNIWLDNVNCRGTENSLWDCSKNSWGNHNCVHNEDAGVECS

B1: SRCR: recombinant mouse MARCO protein scavenger receptor cysteine-rich (SRCR) domain, SEQ ID NO: 2 (protein)
chain: MGWSCIILFLVATATGVHSHHHHHHQRVRIMGGTNRGRAEVYYNNEWGTICDDDWDNNDATVFCRMLGYSRGRALSSYGGGSGNIWLDNVNCRGTENSLWDCSKNSWGNHNCVHNEDAGVECS
modifications: MARCO SRCR

Tests used:
liver CD11b+ cells = test: Doxorubicin uptake by liver CD11b+ cells in treated mice (flow cytometry); type: in vivo; details: flow cytometry of digested liver cells
macrophages = test: Nanoparticle uptake (phagocytosis) by macrophages after MARCO knockdown or blockade; type: cell-based, mouse; details: with or without incubation with recombinant MARCO protein
Method: The effect of MARCO expression on nanoparticle uptake by macrophages in vitro was tested. […] On day 5 following macrophage collection and culture, the siRNAs were mixed with the DharmaFECT 4 transfection reagent (Horizon, T-2004-02) at a final concentration of 100 nM, after which the cells were incubated with the siRNA for 48 hours. The siRNAs used in this study were as follows: Control siRNA (Cell Signaling Technology, 6568S) and Marco siRNA (Millipore Sigma, SASI_Mm01_00200135, SASI_Mm02_00319301).
Scale bar=50 μm. White arrows indicate cells that have taken up nanoparticles. […] Unpaired t-test.
For the nanoparticle phagocytosis assay, cells were plated in Costar 24-well Clear Flat Bottom Ultra-Low Attachment Multiple Well Plates (Corning, 3473) at a density of 10^5 cells/well. Nanoparticles or drug were added to the wells at the following concentrations: nanoparticles, 10^2-10^4/cell; Abraxane, 1 μg/mL; doxorubicin (Doxil), 20 μg/mL. Plates were then transferred to a cell culture incubator, and 2 hours later the cells were collected and washed followed by fixation with 4% paraformaldehyde. The cells were stained with fluorescence-labeled antibodies and analyzed by flow cytometry. The mean fluorescence intensity or the percentage of fluorescence-positive cells was used to compare the uptake of nanoparticles or drug.

E0771 tumor cells [1] = test: E0771 breast cancer mouse model, ABRAXANE plus MARCO blockade; type: in vivo, mice
Method: For this study, one million E0771 tumor cells were implanted in young female C57BL6 mice (aged 6 weeks old). Tumor growth was measured every 3 days with calipers. Tumor volume was calculated as: Volume=0.5×Length×Width^2. When tumor volume reached around 60-80 mm^3 the treatment was started. The mice were treated with paclitaxel-protein particles (ABRAXANE®, 20 mg/kg) or ABRAXANE® plus MARCO blockade agents (anti-MARCO antibody, 2.5 mg/kg; ECD (extracellular domain), MARCO protein extracellular domain, 1.5 mg/kg; SRCR, or MARCO protein scavenger receptor cysteine-rich (SRCR) domain, 0.3 mg/kg). IgG plus 0.9% sodium chloride was used as a control.
One-way analysis of variance with post hoc testing was used to compare tumor volumes at day 18 after treatment. Error bars are means±S.E.M. We used the same experimental setup with the breast E0771 tumor model and treatment doses as the young animals (ABRAXANE®, 20 mg/kg, and/or MARCO protein scavenger receptor cysteine-rich (SRCR) domain, 0.3 mg/kg).
To determine the specificity of the effects of recombinant MARCO protein blockade, additional control experiments in which mouse serum protein was used as an irrelevant protein control and the ECD^Δ as the minimal-binding MARCO control were performed.

MARCO = target: T1, MARCO; test: Binding of nanoparticles with additional MARCO after saturation; details: pre-incubation with saturation doses of SRCR or ECD
Method: (§1) Consistent with a previous report (Brannstrom, A., et al. 2002. Biochem Biophys Res Commun 290, 1462-1469), the SRCR^R→A and SRCR^Δ mutations of MARCO were not expressed. […] Next, the binding capacity of MARCO to particles and nanomedicine was tested. Centrifugal filters were used to isolate unbound MARCO after incubating the SRCR (0.1 mg/mL) with different concentrations of nanoparticles. The MARCO recombinant proteins (0.1 mg/mL SRCR, 0.5 mg/mL ECD, or 0.4 mg/mL ECD^Δ) were incubated with nab-paclitaxel (5 mg/mL, paclitaxel concentration). After 15 min at room temperature with gentle shaking, the mixture was further incubated with the Dynabeads His-Tag isolation and Pulldown (ThermoFisher, Cat. #10103D). After magnetic separation and three washes with PBS, the beads were boiled in western blot sample buffer for subsequent western blotting. Primary antibodies used for western blots were albumin, CST, Cat. #4929, 1:1000; and His-Tag, CST, Cat. #2365, 1:1000. To test the binding capacity of MARCO, 0.1 mg/mL of SRCR was incubated for 15 min at room temperature with different concentrations of nab-paclitaxel or nanoparticles. The mixture was centrifuged through a 30-kDa cutoff filter (Millipore, UFC903096) at 1000 g for 30 minutes. The unbound SRCR in the lower part of the tube was examined by western blotting. […]

[2] = parameters: species or system mice; details: mouse, in vivo, iv
Method: Anti-MARCO, monoclonal MARCO antibody, clone ED31, 2.5 mg/kg; rMARCO, recombinant MARCO protein SRCR domain, 0.3 mg/kg; NP, 100 nm nanoparticles, 10^11 particles injected through tail vain. n=3 mice for each treatment group at each time point. One way ANOVA with correction for multiple comparison was used to compare the difference between NP and other treatment groups. Error bars are means±SD.
Blockade of MARCO-nanoparticle interaction decreased nanoparticle uptake by liver in mice. Two strategies for blocking the MARCO-nanoparticle interaction were tested: with antibody to directly block the MARCO receptors on the cell or with recombinant MARCO protein to saturate the MARCO binding capacity of the particles. Young female C57BL6 background mice (aged 6 weeks) were intravenously injected with fluorescence-labelled 100 nm PEGylated polystyrene nanoparticles (NP, 10^11 particles per 20 g of body weight) with or without recombinant MARCO protein (SRCR domain, 0.3 mg/kg). Liver IVIS imaging was done 4 h after the injection. […] Unpaired t-test.

nab-paclitaxel = test: Pull-down of nab-paclitaxel by recombinant MARCO proteins (Western blot of albumin); type: binding; details: 0.1 mg/mL SRCR, 0.5 mg/mL ECD or 0.4 mg/mL ECD^Δ with nab-paclitaxel 5 mg/mL, His-tag pulldown
Method: as §1

E0771 tumor cells [3] = test: E0771 breast cancer mouse model, DOXIL plus MARCO blockade; type: in vivo, mice; details: DOXIL 2 mg/kg + SRCR 0.3 mg/kg
Method: For this study, one million E0771 tumor cells were implanted in young female C57BL6 mice (aged 6 weeks old). Tumor growth was measured every 3 days with calipers. Tumor volume was calculated as: Volume=0.5×Length× Width^2. When tumor volume reached around 60-80 mm^3 the treatment was started. The mice were treated with Doxil (DOXIL®, 2 mg/kg) or DOXIL® plus MARCO blockade agent (MARCO recombinant protein, SRCR domain, 0.3 mg/kg). 0.9% sodium chloride was used as a control. All agents were injected intravenously 2 times each week for a total of 5 treatments. FIGS. 9A and 33A-33B show growth curves for the E0771 mice treated by DOXIL® or DOXIL® plus MARCO blockade. n=5-6 mice in each treatment arm. Un-paired t-test was used to compare tumor volumes at day 18. […] FIGS. 33C-33D show survival curves of young and old mice bearing E0771 tumors in the groups treated with Doxil (DOXIL®, 2 mg/kg) or DOXIL® plus MARCO blockade agent (MARCO recombinant protein, SRCR domain, 0.3 mg/kg).
Control vs. MARCO or Doxil vs. DoxM were compared with unpaired/tests. Error bars are means±S.E.M. The present inventors used the same experimental setup with the breast E0771 tumor model and treatment doses as the young animals (DOXIL®, 2 mg/kg, and/or MARCO protein scavenger receptor cysteine-rich (SRCR) domain, 0.3 mg/kg).

| Molecule | doxorubicin uptake by liver CD11b+ cells, young versus old mice (liver CD11b+ cells) | nanoparticle uptake by macrophages with recombinant MARCO protein (macrophages) | treatment outcome of ABRAXANE, older mice (E0771 tumor cells [1]; C57BL6 aged 50 weeks, ABRAXANE 20 mg/kg, SRCR 0.3 mg/kg or anti-MARCO antibody, day 18) | efficacy of combination treatment at increased SRCR concentration (E0771 tumor cells [1]; nab-paclitaxel 20 mg/kg, SRCR 3 mg/kg vs 0.3 mg/kg) | therapeutic effect of ABRAXANE (tumor growth inhibition), young mice (E0771 tumor cells [1]; young (6 weeks) female C57BL6, ABRAXANE 20 mg/kg i.v., antibody 2.5, ECD 1.5, SRCR 0.3 mg/kg, day 18) | binding of nanoparticles with additional MARCO after saturation with recombinant MARCO (MARCO) | number of nanoparticles in the liver [2] | binding with nab-paclitaxel (nab-paclitaxel) | treatment outcome of Doxil, older mice (E0771 tumor cells [3]; C57BL6 aged 50 weeks) | relative doxorubicin concentrations in tumors (E0771 tumor cells [3]; Doxil fluorescence intensity per mg of tissue, IVIS) |
| --- | --- | --- | --- | --- | --- | --- | --- | --- | --- | --- |
| COc1cccc2c1C(=O)c1c(O)c3c(c(O)c1C2=O)C[C@@](O)(C(=O)CO)C[C@@H]3O[C@H]1C[C@H](N)[C@H](O)[C@H](C)O1 [doxorubicin] | took up more doxorubicin than did the older mice |  |  |  |  |  |  |  |  |  |
| B1 |  | decreased nanoparticle uptake by macrophages | does not enhance the treatment outcome of abraxane in older mice | nor did further increasing the concentration of SRCR enhance the efficacy of combination treatment | enhanced the inhibition of tumor growth in young mice treated with nab-paclitaxel | could not bind with additional MARCO | significantly reduced the number of nanoparticles in the liver | could strongly bind with nab-paclitaxel | does not enhance the treatment outcome of Doxil in older mice | increased the relative doxorubicin concentrations in tumors |

— patent US20260102468A1, “COMPOSITIONS AND METHODS FOR MARCO INHIBITION AND IMPROVED DRUG DELIVERY” (BOARD OF REGENTS, THE UNIVERSITY OF TEXAS SYSTEM, priority 2022, published 2026)
